Source: publication PMC8511477 (Synthetic Biology, 2021)

Experiments:
Conditions in all cases: 2.5 mM ATP, 0.5 mM CoA, 5 mM MgCl2, pH 7.5, 37 °C
ArACS = system: T1, ArACS; test: myokinase/pyruvate kinase/lactate dehydrogenase coupled NADH assay, […] nm; format: biochemical
T1 construct: gene acs; C-terminal 6xHis (pET29b+), expressed in E. coli BL21*(DE3) delta-patZ, Ni-NTA purified; species only in supplement

EcACS = biological target: T2, EcACS (Escherichia coli, UniProt P27550)
T2 construct: gene acs

purified protein [1] = substrate: O=CO; test: purified protein
purified protein [2] = substrate: CC(=O)O; test: purified protein

O=CO [formate]
Km (ArACS): 38.5 ± 19.3 mM

CC(=O)O [acetate]
km (EcACS): We assayed these homologs using formate as well as acetate, the likely native substrate

B1: EcACS (Escherichia coli K-12) (protein)
chain: MSQIHKHTIPANIADRCLINPQQYEAMYQQSINVPDTFWGEQGKILDWIKPYQKVKNTSFAPGNVSIKWYEDGTLNLAANCLDRHLQENGDRTAIIWEGDDASQSKHISYKELHRDVCRFANTLLELGIKKGDVVAIYMPMVPEAAVAMLACARIGAVHSVIFGGFSPEAVAGRIIDSNSRLVITSDEGVRAGRSIPLKKNVDDALKNPNVTSVEHVVVLKRTGGKIDWQEGRDLWWHDLVEQASDQHQAEEMNAEDPLFILYTSGSTGKPKGVLHTTGGYLVYAALTFKYVFDYHPGDIYWCTADVGWVTGHSYLLYGPLACGATTLMFEGVPNWPTPARMAQVVDKHQVNILYTAPTAIRALMAEGDKAIEGTDRSSLRILGSVGEPINPEAWEWYWKKIGNEKCPVVDTWWQTETGGFMITPLPGATELKAGSATRPFFGVQPALVDNEGNPLEGATEGSLVITDSWPGQARTLFGDHERFEQTYFSTFKNMYFSGDGARRDEDGYYWITGRVDDVLNVSGHRLGTAEIESALVAHPKIAEAAVVGIPHNIKGQAIYAYVTLNHGEEPSPELYAEVRNWVRKEIGPLATPDVLHWTDSLPKTRSGKIMRRILRKIAAGDTSNLGDTSTLADPGVVEKLLEEKQAIAMPS
Km (purified protein [1]): 54.4 ± 14.9 mM

B2: MhACS (Marinithermus hydrothermalis DSM 14884) (protein)
chain: MERIEAVLKENRRFEPPEEFRKRARIQSEAEYEALYRESLEDPEAFWGRVAEELHWFEPWTQVLEWNPPHARWFVNGKTNLSYNALDRHVATWRKNKAAIIWEGEPGEERVLTYHDLWREVQRFANALKQLGVGKGDRVTIYMPMIPETAIAMLACARIGAVHSVVFGGFSANALAERIKDAEAKLLITADGGYRRGRVVPLKAQADEALAETPSVEHVVVVRRTGEAVPMQPGRDHWYHELVESVPDHCPPEVMDAEDPLFILYTSGSTGKPKGVLHTTGGYMVYTYLTTKLVFDLKDEDTYWCTADVGWITGHSYIVYGPLVNGATTLMYEGAPNHPEPDRFWRIVDKYGVTIFYTAPTAIRAFMKWGEAWPRKHRLDSLRLLGTVGEPINPEAWLWYHQVIGQGRCPIVDTWWQTETGGIMITTLPGAHAAKPGFAGKPFFGVAPEIRDAEGNRVETPEEGGYLVLTRPWPSMLRTVWGDPERYRRQYWSQYPDAYFTGDGARRDADGYYLILGRVDDVLNVAGHRLGTMELESALVSHPDVAEAAVVGRPHPEKGEAIVAFVTLKSHARPSEALREALKAHVANTIGPIARPDEIRFAEALPKTRSGKIMRRLLRQIAAGETEIKGDTSTLEDREVVEQLKRGE
Km (purified protein [2]): 0.089 ± 0.060 mM | kcat (purified protein [2]): 15.1 s⁻¹
